The record followed here is patent US20210380703A1.

Substitutions are numbered along the chain they refer to.

B1: 375_D01 (antibody, V domains shown)
VH: EVQLLESGGGLVQPGGSLRLSCAASGFTFSSYSMNWVRQAPGKGLEWVSGINYNGGYTGYADSVKGRFTISRDNSKNTLYLQMNSLRAEDTAVYYCARGANWHDTALDYWGQGTLVTVSS
VL: DIQMTQSPSSLSASVGDRVTITCRASQSILTYLNWYQQKPGKAPKLVIYAATSRASGVPSRFSGSGSGTDFTLTISSLQPEDFATYYCQQSYETPLTFGGGTKVEIK
B2: 368_F10 (antibody, V domains shown)
VH: B1 VH with S33G, S49A, G55S, G59S, G99A, A106H
VL: B1 VL with L30V, T31S, L33V, V47L, E93D
B3: 371_A04 (antibody, V domains shown)
VH: B1 VH with S30D, S33G, G50S, G55S, G99A
VL: B1 VL with V47L, A51V, E93D
B4: 368_B10 (antibody, V domains shown)
VH: B1 VH with S30D, S33G, N35H, S49A, G50S, G59S, G99A
VL: B1 VL with Y92D, T94L
B5: 376_E11 (antibody, V domains shown)
VH: B1 VH with G59S
VL: B1 VL with L33V, T94L
B6: 371_A09 (antibody, V domains shown)
VH: B1 VH with S33G, T58K, G59S, G99A
VL: B1 VL with L30V, L33V, E93D, T94S
B7: 375_F02 (antibody, V domains shown)
VH: B1 VH with S49A, G50S, G55S, G59S, A106H
VL: B1 VL with T31S, V47L, E93D, T94S
B8: 372_B11 (antibody, V domains shown)
VH: B1 VH with N35H, S49A, G55S, G59S, G99A, A106H
VL: B1 VL with L33V, R54L, E93D
B9: 374_F03 (antibody, V domains shown)
VH: B1 VH with S33G, S49A, G50S, G59S, G99A, A106H
VL: B1 VL with L30I, T31S, L33V, E93D
B10: 375_H05 (antibody, V domains shown)
VH: B1 VH with G50N
VL: B1 VL with T31S, L33V, V47L, E93D
B11: 370_H08 (antibody, V domains shown)
VH: B1 VH with S33G, N35H, S49A, G50S, G59S, G99A, A106H
VL: B1 VL with T31S, L33V, V47L, A55H, E93S, T94L
B12: 369_G10 (antibody, V domains shown)
VH: B1 VH with S33G, N35H, S49A, G50S, G59S, G99A
VL: B1 VL with T31S, E93D, T94S
B13: 375_G04 (antibody, V domains shown)
VH: B1 VH with S33G, S49A, G50S, G55S, A106H
VL: B1 VL with L30V, T31S, L33V, V47L, R54L, E93D, T94S
B14: 365_B10 (antibody, V domains shown)
VH: B1 VH with S30D, S31D, N35H, S49A, G50S, G55S, T58K, G99A
VL: B1 VL with T31R, V47L, Y92D, E93N, T94L
B15: 375_F07 (antibody, V domains shown)
VH: B1 VH with S31D, G50N
VL: B1 VL with T31S, V47L, E93D, T94S
B16: 375_E03 (antibody, V domains shown)
VH: B1 VH with S31D, S49A, G50N, A106H
VL: B1 VL with R54L, E93D, T94N
B17: 370_B01 (antibody, V domains shown)
VH: B1 VH with S30D, S31D, S33G, N35H, T58K, G59S, G99A
VL: B1 VL with T31S, L33V, V47L, A50V, T52S, E93S, T94L
B18: 375_F08 (antibody, V domains shown)
VH: B1 VH with S33G, G50S, G55S, T58K, G59S, A106H
VL: B1 VL with T31S, V47L, A55H, E93D, T94N
B19: 369_H03 (antibody, V domains shown)
VH: B1 VH with N35H, S49A, G50S, G55S, T58K, G59S, G99A
VL: B1 VL with L30V, T31S, V47L, A51T, E93D
B20: 371_H02 (antibody, V domains shown)
VH: B1 VH with S30D, S31D, T58K, G59S, G99A, A106H
VL: B1 VL with L30I, T31S, R54L, T94N
B21: 376_E02 (antibody, V domains shown)
VH: B1 VH with S49A, T58K
VL: B1 VL with T31S, L33V, A55H, Y92D, E93N
B22: 369_B03 (antibody, V domains shown)
VH: B1 VH with S33G, N35H, S49A, G59S, G99A
VL: B1 VL with L33V, R54L, T94L
B23: 376_B03 (antibody, V domains shown)
VH: B1 VH with S49A, G55S, T58K, G59S
VL: B1 VL with T31S, L33V, A51V, A55H, E93D, T94S
B24: 368_C09 (antibody, V domains shown)
VH: B1 VH with N35H, G50N, G99A, A106H
VL: B1 VL with L33V, V47L, R54L, E93D, T94L
B25: 375_G05 (antibody, V domains shown)
VH: B1 VH with S49A, G59S
VL: B1 VL with L30V, T31S, V47L, A51V, E93D, T94S
B26: 372_E02 (antibody, V domains shown)
VH: B1 VH with S33G, S49A, G50S, G59S, G99A
VL: B1 VL with L30I, T31S, L33V, E93D, T94L
B27: 372_A09 (antibody, V domains shown)
VH: B1 VH with S30D, S33G, G59S, G99A
VL: B1 VL with T31S, E93N, T94S
B28: 376_C04 (antibody, V domains shown)
VH: B1 VH with S33G, G50N
VL: B1 VL with T31S, L33V, V47L, A51V, A55H, E93D, T94N
B29: 371_D07 (antibody, V domains shown)
VH: B1 VH with S30D, S31D, S33G, S49A, G50N, T58K, G99A, A106H
VL: B1 VL with T94L
B30: 368_D09 (antibody, V domains shown)
VH: B1 VH with S30D, S33G, N35H, S49A, G55S, T58K, G59S, G99A, A106H
VL: B1 VL with L30V, T31S, L33V, V47L, R54L, E93D, T94N
B31: 374_B02 (antibody, V domains shown)
VH: B1 VH with S30D, N35H, S49A, G55S, G59S, G99A, A106H
VL: B1 VL with L30I, T31S, V47L, E93D, T94S
B32: 375_A11 (antibody, V domains shown)
VH: B1 VH with S31D, S33G, N35H, G50S, G55S, T58K, G59S, G99A
VL: B1 VL with L30V, T31S, V47L, A50Y, A51V, S53N, R54L, E93D, T94N
B33: 375_E06 (antibody, V domains shown)
VH: B1 VH with T58K, G59S
VL: B1 VL with T31S, E93D, T94S
B34: 375_F12 (antibody, V domains shown)
VH: B1 VH with S30D, S33G, N35H, S49A, G50S, G59S, G99A
VL: B1 VL with Y92D, T94L
B35: 368_B11 (antibody, V domains shown)
VH: B1 VH with S30D, S33G, N35H, T58K, G59S, G99A, A106H
VL: B1 VL with T31S, V47L, T52S, R54L, A55Q, E93D, T94S
B36: 375_A04 (antibody, V domains shown)
VH: B1 VH with S30D, S33G, S49A, T58K, G59S, G99A
VL: B1 VL with A50Y, A51V, T52N, S53N, R54L, A55P, E93N, T94S
B37: 365_C06 (antibody, V domains shown)
VH: B1 VH with S31D, S33G, N35H, G59S, G99A
VL: B1 VL with L30S, L33V, V47L, A51V, R54L, E93D, T94N
B38: 375_E10 (antibody, V domains shown)
VH: B1 VH with G59S
VL: B1 VL with T31S, E93D, T94N
B39: 365_B04 (antibody, V domains shown)
VH: B1 VH with S33G, N35H, S49A, G50S, G55S, G59S, G99A
VL: B1 VL with V47L, A55H, Y92D, T94S
B40: 375_H01 (antibody, V domains shown)
VH: B1 VH with S31D, S49A, G55S, G59S, G99A, A106H
VL: B1 VL with V47L, A55H, E93S, T94N
B41: 373_E11 (antibody, V domains shown)
VH: B1 VH with S30D, S33G, N35H, S49A, G50S, G59S, G99A
VL: B1 VL with L30V, T31S, E93D, T94S
B42: 376_G02 (antibody, V domains shown)
VH: B1 VH with S31D, S33G, G59S, G99A
VL: B1 VL with L30S, T31R, R54L, E93D, T94N
B43: 375_D10 (antibody, V domains shown)
VH: B1 VH with S49A, G59S
VL: B1 VL with L33V, V47L, Y92D, E93D, T94S
B44: 371_D12 (antibody, V domains shown)
VH: B1 VH with S30D, S33G, T58K, G59S, G99A
VL: B1 VL with T31S, V47L, T94L

The target of the test is human Fc (human). Put plainly: ELISA, negative control. A general note: ELISA stands for enzyme-linked immunosorbent assay.
In turn, B1 displayed an optical density of 0.182 OD.

B2 registered an optical density of 0.328 OD.

B3: the optical density was 0.315 OD.

B4 came in with an optical density of 0.412 OD.

For B5, the optical density came out at 0.268 OD.

With B6, the optical density turned out to be 0.302 OD.

With B7, the optical density was 0.205 OD.

B8: the optical density turned out to be 0.438 OD.

For the molecule B9, the optical density was 0.185 OD.

The molecule B10 displayed an optical density of 0.167 OD.

For the molecule B11, the optical density was 0.538 OD.

For the molecule B12, the optical density worked out at 0.423 OD.

In turn, B13 returned an optical density of 0.161 OD.

The molecule B14 gave an optical density of 0.322 OD.

Regarding B15, the optical density was 0.172 OD.

B16 returned an optical density of 0.181 OD.

Regarding B17, the optical density worked out at 0.47 OD.

On to B18, for which the optical density amounted to 0.201 OD.

In turn, B19 had an optical density of 0.498 OD.

The molecule B20 yielded an optical density of 0.388 OD.

In turn, B21 came in with an optical density of 0.222 OD.

As for B22, the optical density turned out to be 0.62 OD.

In turn, B23 registered an optical density of 0.253 OD.

Take B24: the optical density was found to be 0.341 OD.

B25 returned an optical density of 0.21 OD.

For B26, the optical density was 0.431 OD.

On to B27, for which the optical density was found to be 0.31 OD.

On to B28, for which the optical density was 0.219 OD.

B29 registered an optical density of 0.299 OD.

B30: the optical density came out at 0.212 OD.

Molecule B31 showed an optical density of 0.179 OD.

B32: the optical density was found to be 0.176 OD.

As to B33, the optical density was found to be 0.188 OD.

In turn, B34 had an optical density of 0.175 OD.

B35 returned an optical density of 0.286 OD.

Molecule B36 gave an optical density of 0.177 OD.

The molecule B37 had an optical density of 0.318 OD.

B38 displayed an optical density of 0.187 OD.

Turning to B39, the optical density stood at 0.271 OD.

B40 showed an optical density of 0.216 OD.

Take B41: the optical density turned out to be 0.243 OD.

B42 came in with an optical density of 0.285 OD.

Take B43: the optical density worked out at 0.228 OD.

Take B44: the optical density was 0.337 OD.
